Measured values published in patent publication US9902783B2, “Antibodies and pharmaceutical compositions containing same useful for inhibiting activity of metalloproteins” (Yeda Research and Development Co. Ltd., priority 2007, dated 2018).

T1: Heme group within Myoglobin (Homo sapiens, UniProt P02144)
T1 sequence (P02144 1-154): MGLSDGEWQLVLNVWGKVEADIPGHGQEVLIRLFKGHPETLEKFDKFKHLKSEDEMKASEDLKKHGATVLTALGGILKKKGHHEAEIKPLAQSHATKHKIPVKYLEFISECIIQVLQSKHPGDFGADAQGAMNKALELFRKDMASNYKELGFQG


Legend:
DSS-induced colitis = test: DSS induced acute colitis in mice; assay type: in vivo, C57BL/6 mice; details: for reduction in colon length: 11 days after DSS induction, versus naïve mice
Procedure: FIGS. 15A-15C are graphs illustrating the effect of 6C6 treatment on the various manifestations of acute DSS colitis in C57BL/6 mice. Disease was induced by 2% DSS for 5 days. 6C6 treatment, 5 or 1.5 mg/kg mouse, was administered by daily i.p. injection starting from day 0. FIG. 15A: Clinical score was evaluated by daily monitoring of DAI (which is the combined score of body weight, rectal bleeding and stool consistency, on a scale of 0-4). Data are expressed as the dot distribution of a mean for each animal of days 6 to 10. FIG. 15B: Colon length. FIG. 15C: Mortality. The data presented are the combined results of two experiments, with a total of 15 mice per group.*, significant effect over colitis-untreated mice (p<0.05).
To explore the inhibitory activity of 6C6, the ability of mAb treatment to ameliorate DSS induced acute colitis was examined Specifically, 2% DSS was provided to the highly susceptible mouse strain C57BL/6 for five days. 6C6 treatment was given daily by intraperitoneal injections of 1.5 or 5 […], starting at the day of induction. Mice exposed to 2% DSS developed symptoms of acute colitis, with diarrhea, rectal bleeding and severe weight loss.

[1] = target: T2, MMP-2 catalytic domain (MMP-2cat) (Mus musculus, UniProt P33434); test: immuno affinity pull down of MMP-2 catalytic domain; assay type: binding; details: SDS-PAGE
T2 construct: NP_032636.1; made in house; host or cells: BL-21 cells (E. coli)
T2 sequence (P33434 110-467): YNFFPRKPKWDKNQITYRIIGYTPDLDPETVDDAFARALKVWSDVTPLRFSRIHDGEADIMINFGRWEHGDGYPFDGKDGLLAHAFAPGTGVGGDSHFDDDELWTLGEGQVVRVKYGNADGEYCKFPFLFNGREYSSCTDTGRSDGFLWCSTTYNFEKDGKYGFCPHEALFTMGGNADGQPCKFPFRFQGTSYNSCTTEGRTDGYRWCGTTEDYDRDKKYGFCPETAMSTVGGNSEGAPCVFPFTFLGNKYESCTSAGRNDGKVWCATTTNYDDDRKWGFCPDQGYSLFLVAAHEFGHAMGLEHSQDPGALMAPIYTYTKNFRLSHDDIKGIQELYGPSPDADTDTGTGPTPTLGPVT
Procedure: FIGS. 3A-3C are western blot images showing the ability of mouse IgG-Agarose immobilized mAbs to pull down recombinant MMP-2 catalytic domain (MMP-2cat) or Pro-MMP-2 and Pro-MMP-9 from solution. Antibodies used for each experiment are 6C6, 13E11, and 13E15. FIG. 3A—MMP-2cat (2 μg) was incubated with anti-mouse IgG-Agarose (cntl, lane1) or anti CoTCPP, ZnTCPP and Imisdp mAb (10 μg)-anti-mouse IgG-Agarose for 2 hr at 20° C., immunoprecipitates (lane 2, 3, 5) were centrifuged and washed three times, separated on SDS/PAGE gel and visualized by Coomassie-staining. […]
FIGS. 11A-11D are photographs and models illustrating that 6C6 binds only the active conformation of MMP9 and MMP2. […] FIGS. 11B,C: 6C6 mAb immobilized to protein A beads was analyzed for its ability to pull down ProMMP2, ProMMP9, or MMP2 catalytic fragment (lacking the hemopexin and pro domains) from solution. […]
MAbs (10 μg) were incubated with anti mouse IgG Agarose beads (Sigma) overnight at 4° C. in PBS. […] The proteins that remained bound to the beads were eluted with SDS sample buffer, fractionated by SDS-PAGE, and detected by staining with Coomassie blue.

MMP-2 = MMP-2 (Mus musculus, UniProt P33434); test: kinetic assay with fluorogenic peptide substrate, MMP-2; assay type: biochemical, human
MMP-2, sequence (P33434 110-467): as above

[2] = target: T1, Heme group within Myoglobin; test: cross reactivity, competitive ELISA and immuno affinity assay, Myoglobin; assay type: binding
Text: The selectivity of anti CoTCPP and anti Imisdp was further challenged, by testing their cross reactivity with non related zinc dependent enzymes—Carbonic Anhydrase (CA) and brockii alcohol dehydrogenase (TbADH). Similar to active MMPs CA contains a zinc ion that is tetrahedraly coordinated to three histidine residues and a water molecule, TbADH contains a catalytic zinc ion that is tetraheadrally coordinated to four different amino acid residues, histidine, cysteine, aspartate and glutamate. […] Anti CoTCPP mAb was also tested for its cross reactivity with related physiological porphyrins such as the Heme group within Myoglobin and Hemoglobin and vitamin.

| Molecule | reduction in colon length (DSS-induced colitis; 1.5 mg/kg mouse daily i.p.) | reduction in colon length (DSS-induced colitis; 5 mg/kg mouse daily i.p.) | disease activity index (DAI) (DSS-induced colitis; 2% DSS 5 days, daily i.p. mAb from day 0, versus untreated control) | mortality rate (DSS-induced colitis; 11 days after induction, 6C6 treated mice) | binding to MMP-2 catalytic domain [1] | mode of inhibition of MMP-2 (MMP-2) | cross reactivity with Myoglobin [2] |
| --- | --- | --- | --- | --- | --- | --- | --- |
| 6C6: monoclonal antibody, IgG2a, raised against the hapten Imisdp; MMP-2 and MMP-9 inhibitory; SEQ ID NO: 1 (protein, 6c6 mAb light chain) CMETTQTPLSLPVSLGDQASISCRSSQSIVHSNGNTFLEWYLQKPGQSPKLLIYKVSNCRFSGVPDRFSGSGSGTDFTLKISRVEAEDLGVYYCFQASHVPPTFGGG | 22% | 16% | decreased disease activity | 33% | formation of a specific complex |  |  |
| 13E11: monoclonal antibody, IgG2b, raised against the hapten CoTCPP (antibody, V domains shown, 13E11 mAb heavy chain; 13E11 mAb light chain, monoclonal antibody, IgG2b, raised against the hapten CoTCPP) VH: EGGGLVQPGGSRKLSCAASGFTFTSFGMHWVRQAPEKGLEWVAYISSGNEIIYYADTVKGRFTISRDNPKNTLFLQMTSLRSEDTAMYYCARNYYRYGFYVMDYWGQG VL: EIVVTQSPAILSASPGEKVTMTCRASSSVSYMHWYQQKPGSSPKPWIYATSNELASGVPARFSGSGSGTSYSLTISRVEAEDAATYYCQQWISNPLTFGAG |  |  |  |  |  | competitive inhibitor | No cross was detected |
